Experimental data taken from publication PMC5987255 (Molecular cell, 2018).

B1: mouse core RAG2 (aa 1-359) (domain or fragment, UniProt P21784 1-359, looked up)
chain: MSLQMVTVGHNIALIQPGFSLMNFDGQVFFFGQKGWPKRSCPTGVFHFDIKQNHLKLKPAIFSKDSCYLPPLRYPATCSYKGSIDSDKHQYIIHGGKTPNNELSDKIYIMSVACKNNKKVTFRCTEKDLVGDVPEPRYGHSIDVVYSRGKSMGVLFGGRSYMPSTQRTTEKWNSVADCLPHVFLIDFEFGCATSYILPELQDGLSFHVSIARNDTVYILGGHSLASNIRPANLYRIRVDLPLGTPAVNCTVLPGGISVSSAILTQTNNDEFVIVGGYQLENQKRMVCSLVSLGDNTIEISEMETPDWTSDIKHSKIWFGSNMGNGTIFLGIPGDNKQAMSEAFYFYTLRCSEEDLSEDQ
B2: mouse core RAG1 (aa 384-1008), E962Q mutant (domain or fragment, UniProt P15919 384-1008, looked up)
chain: VHINKGGRPRQHLLSLTRRAQKHRLRELKIQVKEFADKEEGGDVKAVCLTLFLLALRARNEHRQADELEAIMQGRGSGLQPAVCLAIRVNTFLSCSQYHKMYRTVKAITGRQIFQPLHALRNAEKVLLPGYHPFEWQPPLKNVSSRTDVGIIDGLSGLASSVDEYPVDTIAKRFRYDSALVSALMDMEEDILEGMRSQDLDDYLNGPFTVVVKESCDGMGDVSEKHGSGPAVPEKAVRFSFTVMRITIEHGSQNVKVFEEPKPNSELCCKPLCLMLADESDHETLTAILSPLIAEREAMKSSELTLEMGGIPRTFKFIFRGTGYDEKLVREVEGLEASGSVYICTLCDTTRLEASQNLVFHSITRSHAENLQRYEVWRSNPYHESVEELRDRVKGVSAKPFIETVPSIDALHCDIGNAAEFYKIFQLEIGEVYKHPNASKEERKRWQATLDKHLRKRMNLKPIMRMNGNFARKLMTQETVDAVCELIPSEERHEALRELMDLYLKMKPVWRSSCPAKECPESLCQYSFNSQRFAELLSTKFKYRYEGKITNYFHKTLAHVPEIIERDGSIGAWASEGNQSGNKLFRRFRKMNARQSKCYEMEDVLKHHWLYTSKYLQKFMNAHNA

Experiments:
[1] = target: B2; test: crystal structure
crystal structure = target: the molecule itself; test: crystal structure

Binder | binding result [1] | binding result (crystal structure)
B1 | binds | –
B2 | – | binds
